Measurements as given in patent US20110263026, “Construction of Protein-Responsive shRNA/RNAi Control System Using RNP Motif” (JAPAN SCIENCE AND TECHNOLOGY AGENCY, published 2011).

How the values were obtained:
L7Ae [1] = target: T1, L7Ae (UniProt O29494 SEQ:21-139); test: EMSA; 40 nM RNA, 80-640 nM L7Ae, Opti-MEM, room temperature; conditions: tags: His6 (pET-28b+, Ni-NTA); hairpin (shRNA) with Box C/D kink-turn loop
Experimental: (§1) The binding between each shRNA and the protein was confirmed as follows: after dilution with a dialysis buffer to bring the protein concentration to concentrations 25 times the final concentrations of 80 to 640 nM, 2 μL of the protein solution with each concentration, 2 μL of 1 μM shRNA-Box C/D-GFP, 6 μL of ultrapure water, and 40 μL of Opti-MEM I (trademark, Invitrogen Corp.) were mixed and left standing at room temperature for 30 minutes to bind shRNA (40 nM) to L7Ae (80 nM, 160 nM, 320 nM, or 640 nM). shRNA-GFP and shRNA-Box C/D mut-GFP were bound to L7Ae in the same way. To each solution, 13 μL of 5× dye solution (0.25% BPB, 30% glycerol) was added and mixed, and 15 μL of this mixed solution was layered on a nondenaturing 15% polyacrylamide (1/30 bisacrylamide) gel and electrophoresed at 250 V at 4° C. for 50 minutes. After the electrophoresis, the gel was stained with SYBR Green for 15 minutes, and bands were confirmed using FLA-7000 (FUJI FILM).

L7Ae [2] = target: T1, L7Ae; test: EMSA; 40 nM RNA, 80-640 nM L7Ae; sequence-specific binding stated for Box C/D only; conditions: tags: His6 (pET-28b+, Ni-NTA); hairpin (shRNA)
Experimental: as §1

T1 sequence (O29494 whole entry): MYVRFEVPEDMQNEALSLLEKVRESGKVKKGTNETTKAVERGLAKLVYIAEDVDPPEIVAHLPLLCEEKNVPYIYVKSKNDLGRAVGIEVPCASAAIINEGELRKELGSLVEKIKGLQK

B1: shRNA-Box C/D-GFP (ssRNA)
RNA: GGCAUCAAGGUGAACUUCAGCUGACCCGAAAGGGCGUGAUGCUGAAGUUCACCUUGAUGCCAG
L7Ae [1]
  binding result: binds

B2: shRNA-Box C/D-mut-GFP (ssRNA)
RNA: GGCAUCAAGGUGAACUUCAGCUGCCCGAAAGGGCGUCAUGCUGAAGUUCACCUUGAUGCCAG
L7Ae [2]
  binding result: no binding

B3: shRNA-GFP (ssRNA)
RNA: GGCAUCAAGGUGAACUUCAAGAUCCAGCAUAGGGAUCUUGAAGUUCACCUUGAUGCCAG
L7Ae [2]
  binding result: no binding
